Results: PMC5063953 (Biochemical Pharmacology, 2016)
Like-named read-outs stand apart in the source and are kept apart here. No end group written: not given here.

Legend:
[1] = test system: hCLR-RAMP2; conditions: ref [60], cited from earlier work
[2] = test system: hCLR-RAMP3; conditions: ref [60], cited from earlier work
[3] = test system: hCLR-RAMP1; conditions: cited from earlier work
[4] = test system: hCRF-1R; conditions: ref [44], cited from earlier work
[5] = target: human GLP-1R R6.37^348A (human) (UniProt P43220); experiment: radioligand binding
[6] = target: human GLP-1R R5.56^326A (human) (UniProt P43220); experiment: radioligand binding
[7] = target: human GLP-1R K6.35^346A (human) (UniProt P43220); experiment: radioligand binding
[8] = target: N-terminally double c-myc labelled wildtype human GLP-1R (human) (UniProt P43220); experiment: radioligand binding
[9] = target: human GLP-1R E7.63^408A (human) (UniProt P43220); experiment: radioligand binding
[10] = target: human GLP-1R Q7.65^410A (human) (UniProt P43220); experiment: radioligand binding
[11] = target: human GLP-1R K6.40^351A (human) (UniProt P43220); experiment: radioligand binding
[12] = target: human GLP-1R R3.30^227A (human) (UniProt P43220); experiment: radioligand binding
[13] = target: human GLP-1R Y3.53^250A (human) (UniProt P43220); experiment: radioligand binding
[14] = target: human GLP-1R R5.40^310A (human) (UniProt P43220); experiment: radioligand binding
[15] = target: human GLP-1R K4.64^288A (human) (UniProt P43220); experiment: radioligand binding
[16] = target: human GLP-1R R2.46^176A (human) (UniProt P43220); experiment: radioligand binding
[17] = target: human GLP-1R R6.37^348A (human) (UniProt P43220)
[18] = target: human GLP-1R R5.56^326A (human) (UniProt P43220)
[19] = target: human GLP-1R K6.35^346A (human) (UniProt P43220)
[20] = target: N-terminally double c-myc labelled wildtype human GLP-1R (human) (UniProt P43220)
[21] = target: human GLP-1R E7.63^408A (human) (UniProt P43220)
[22] = target: human GLP-1R Q7.65^410A (human) (UniProt P43220)
[23] = target: human GLP-1R K6.40^351A (human) (UniProt P43220)
[24] = target: human GLP-1R R3.30^227A (human) (UniProt P43220)
[25] = target: human GLP-1R N2.52^182A (human) (UniProt P43220)
[26] = target: human GLP-1R Y3.53^250A (human) (UniProt P43220)
[27] = target: human GLP-1R R5.40^310A (human) (UniProt P43220)
[28] = target: human GLP-1R K4.64^288A (human) (UniProt P43220)
[29] = target: human GLP-1R R2.46^176A (human) (UniProt P43220)
[30] = test system: hGCGR; conditions: ref [15], cited from earlier work
[31] = test system: rGCGR; conditions: ref [52], cited from earlier work
[32] = test system: hSecR; conditions: cited from earlier work
[33] = test system: SecR; conditions: R2.46A; ref [17]; cited from earlier work
[34] = test system: rSecR; conditions: ref [14], cited from earlier work
[35] = test system: hVPAC2R; conditions: ref [35], cited from earlier work
[36] = test system: hVPAC1R; conditions: cited from earlier work
[37] = test system: oPTH-1R; conditions: ref [57], cited from earlier work

Molecule: adrenomedullin: agonist at CLR-RAMP2 or CLR-RAMP3 complexes (YRQSMNNFQGLRSFGCRFGTCTVQKLAHQIYQFTDKDKDNVAPRSKISPQGY; ends and bridges not checked; cysteine pairing not given here; UniProt P35318 95-146, looked up)
- Effect compared with WT: cAMP production ([1]; K3.30A): Reduced adrenomedullin cAMP production
- Effect compared with WT: cAMP production ([1]; R4.64A): Reduced adrenomedullin mediated cAMP production
- function upon mutation of R4.64, in words ([1]; R4.64 mutated, [63]): altered adrenomedullin function
- Effect compared with WT: cAMP production ([2]; K3.30A): Reduced adrenomedullin cAMP production
- Effect compared with WT: cAMP production ([2]; R4.64A): Reduced adrenomedullin mediated cAMP production
- function upon mutation of R4.64, in words ([2]; R4.64 mutated, [63]): altered adrenomedullin function

Molecule: calcitonin gene related peptide [CGRP]
- Effect compared with WT: cAMP potency ([3]; E7.63A, ref [59]): Reduced CGRP-mediated cAMP potency
- Effect compared with WT: cAMP pEC50 ([3]; H5.40A, ref [59]): Reduced CGRP-mediated cAMP pEC50
- Effect compared with WT: cAMP production ([3]; K3.30A, ref [59]): No effect on CGRP mediated cAMP production
- Effect compared with WT: cAMP production ([3]; K6.37A, ref [10]): No effect on CGRP mediated cAMP production
- Effect compared with WT: affinity or cAMP production ([3]; N2.52A, ref [59]): No effect on CGRP affinity or cAMP production
- Effect compared with WT: cAMP production ([3]; N5.56A, ref [59]): No effect on CGRP cAMP mediated production
- Effect compared with WT: cAMP potency ([3]; R2.46A, ref [59]): Reduced CGRP mediated cAMP potency.
- Effect compared with WT: cAMP pEC50 ([3]; R4.64A, ref [59]): Reduced CGRP mediated cAMP pEC50.
- function upon mutation of R4.64, in words ([3]; R4.64 mutated, ref [60], [63]): not CGRP function
- reduction in affinity compared with WT ([3]; R6.40A, ref [10]): 5 fold
- reduction in cAMP production compared with WT ([3]; R6.40A, ref [10]): 30 fold

Molecule: corticotropin-releasing factor [CRF]
- Effect compared with WT: cAMP potency (Gs) ([4]; K6.37A): Increased CRF mediated cAMP potency (Gs)
- Effect compared with WT: pERK1/2 (Gi) ([4]; K6.37A): reduced pERK1/2 (Gi)

Molecule: exendin-4 (from UniProt P26349 48-87) (peptide)
- pKi [5]: 8.8 pKi
- pKi [6]: 8.59 pKi
- pKi [7]: 9.34 pKi
- pKi [8]: 8.87 pKi
- pKi [9]: 8.29 pKi
- pKi [10]: 9.08 pKi
- pKi [11]: 8.92 pKi
- pKi [12]: 7.6 pKi
- pKi [13]: 8.68 pKi
- pKi [14]: 7.99 pKi
- pKi [15]: 7.39 pKi
- pKi [16]: 8.61 pKi
- −Log KA (functional affinity) from operational model fit of cAMP accumulation curves [17]: 9.37 −Log KA
- −Log KA (functional affinity) from operational model fit of iCa2+ mobilisation curves [17]: 7.08 −Log KA
- −Log KA (functional affinity) from operational model fit of pERK1/2 curves [17]: 8.35 −Log KA
- −Log KA (functional affinity) from operational model fit of cAMP accumulation curves [18]: 9.22 −Log KA
- −Log KA (functional affinity) from operational model fit of iCa2+ mobilisation curves [18]: 7.1 −Log KA
- −Log KA (functional affinity) from operational model fit of pERK1/2 curves [18]: 8.33 −Log KA
- −Log KA (functional affinity) from operational model fit of cAMP accumulation curves [19]: 9.91 −Log KA
- −Log KA (functional affinity) from operational model fit of iCa2+ mobilisation curves [19]: 7.78 −Log KA
- −Log KA (functional affinity) from operational model fit of pERK1/2 curves [19]: 8.21 −Log KA
- −Log KA (functional affinity) from operational model fit of cAMP accumulation curves [20]: 9.24 −Log KA
- −Log KA (functional affinity) from operational model fit of iCa2+ mobilisation curves [20]: 7.46 −Log KA
- −Log KA (functional affinity) from operational model fit of pERK1/2 curves [20]: 8.31 −Log KA
- −Log KA (functional affinity) from operational model fit of cAMP accumulation curves [21]: 8.89 −Log KA
- −Log KA (functional affinity) from operational model fit of iCa2+ mobilisation curves [21]: 7.01 −Log KA
- −Log KA (functional affinity) from operational model fit of pERK1/2 curves [21]: 8.35 −Log KA
- −Log KA (functional affinity) from operational model fit of cAMP accumulation curves [22]: 9.41 −Log KA
- −Log KA (functional affinity) from operational model fit of iCa2+ mobilisation curves [22]: 7.1 −Log KA
- −Log KA (functional affinity) from operational model fit of pERK1/2 curves [22]: 8.35 −Log KA
- −Log KA (functional affinity) from operational model fit of cAMP accumulation curves [23]: 9.31 −Log KA
- −Log KA (functional affinity) from operational model fit of iCa2+ mobilisation curves [23]: 7.15 −Log KA
- −Log KA (functional affinity) from operational model fit of pERK1/2 curves [23]: 8.12 −Log KA
- −Log KA (functional affinity) from operational model fit of cAMP accumulation curves [24]: 8.13 −Log KA
- −Log KA (functional affinity) from operational model fit of iCa2+ mobilisation curves [24]: 6.82 −Log KA
- −Log KA (functional affinity) from operational model fit of pERK1/2 curves [24]: 7.31 −Log KA
- −Log KA (functional affinity) from operational model fit of cAMP accumulation curves [25]: 9.16 −Log KA
- −Log KA (functional affinity) from operational model fit of pERK1/2 curves [25]: 8.21 −Log KA
- −Log KA (functional affinity) from operational model fit of cAMP accumulation curves [26]: 9.37 −Log KA
- −Log KA (functional affinity) from operational model fit of pERK1/2 curves [26]: 8.11 −Log KA
- −Log KA (functional affinity) from operational model fit of cAMP accumulation curves [27]: 7.79 −Log KA
- −Log KA (functional affinity) from operational model fit of pERK1/2 curves [27]: 7.53 −Log KA
- −Log KA (functional affinity) from operational model fit of cAMP accumulation curves [28]: 8.16 −Log KA
- −Log KA (functional affinity) from operational model fit of pERK1/2 curves [28]: 7.01 −Log KA
- −Log KA (functional affinity) from operational model fit of cAMP accumulation curves [29]: 8.95 −Log KA
- −Log KA (functional affinity) from operational model fit of iCa2+ mobilisation curves [29]: 7.39 −Log KA
- −Log KA (functional affinity) from operational model fit of pERK1/2 curves [29]: 8.12 −Log KA

Molecule: glucagon: peptide agonist of the glucagon receptor
- Effect compared with WT: affinity ([30]; K4.64L): Reduced glucagon affinity
- Effect compared with WT: expression and affinity ([30]; R3.30A): Reduced expression and glucagon affinity
- Effect compared with WT: expression and affinity ([30]; R5.40A): Reduced expression and glucagon affinity
- Effect compared with WT: potency in CRE reporter activity assay ([31]; E7.63A): Enhanced basal activity and enhanced potency in glucagon mediated CRE reporter activity assay
- Effect compared with WT: potency in CRE reporter activity assay ([31]; N7.61A): Enhanced potency in glucagon mediated CRE reporter activity assay
- Effect compared with WT: CRE reporter activity ([31]; R6.37A): Enhanced glucagon mediated CRE reporter activity (potency and Emax)

Molecule: secretin: agonist of the secretin receptor
- Effect compared with WT: affinity or receptor expression ([32]; R6.37A/K6.40A, ref [17]): no effect on affinity or receptor expression
- Effect compared with WT: cAMP and calcium ([32]; R6.37A/K6.40A, ref [17]): Reduced secretin mediated cAMP and calcium
- Effect compared with WT: cAMP production ([32]; R6.37A, ref [8]): No effect on secretin mediated cAMP production
- Effect compared with WT: cAMP potency [33]: not cAMP potency
- Effect compared with WT: calcium potency [33]: Decreased secretin mediated calcium potency
- Effect compared with WT: cAMP production ([34]; R3.30A): Reduced secretin-mediated cAMP production
- Effect compared with WT: cAMP potency ([34]; R4.64A): Decreased secretin mediated cAMP potency.

Molecule: urocortin: agonist at hCRF-1R (DNPSLSIDLTFHLLRTLLELARTQSQRERAEQNRIIFDSV; ends and bridges not checked; UniProt P55089 83-122, looked up)
- Effect compared with WT: IP3 (Gq) ([4]; K6.40A): reduced IP3 (Gq)
- Effect compared with WT: cAMP (Gs) ([4]; K6.40A): Increased urocortin mediated cAMP (Gs)

Molecule: vasoactive intestinal polypeptide [VIP]
- Effect compared with WT: cAMP potency ([35]; R6.37A): Reduced VIP mediated cAMP potency
- Effect compared with WT: cAMP potency ([35]; R6.40A): Reduced VIP mediated cAMP potency
- Effect compared with WT: cAMP production ([36]; E7.63A, ref [13]): Decreased VIP mediated cAMP production
- Effect compared with WT: cAMP production ([36]; R6.37A, ref [13]): No effect on VIP mediated cAMP production
- Effect compared with WT: IP3 production ([36]; R6.40A, ref [36]): Reduced VIP mediated IP3 production
- Effect compared with WT: cAMP ([36]; R6.40A, ref [36]): no effect on cAMP
- Effect compared with WT: cAMP production ([36]; Y3.53A, ref [55]): Reduced VIP mediated cAMP production
- Effect compared with WT: cAMP ([36]; Y6.35A, ref [13]): No effect on VIP mediated cAMP

B1: parathyroid hormone (peptide, UniProt P01270 32-115, looked up)
Parathyroid hormone: SVSEIQLMHNLGKHLNSMERVEWLRKKLQDVHNFVALGAPLAPRDAGSQRPRKKEDNVLVESHEKSLGEADKADVNVLTKAKSQ
modifications: Parathyroid hormone
- Effect compared with WT: cAMP ([37]; E7.63 K): No effect on PTH mediated cAMP
- Effect compared with WT: cAMP production ([37]; H2.52A): No effect on PTH-1 cAMP production.
- Effect compared with WT: cAMP ([37]; R4.64A): No effect on PTH mediated cAMP
